This note sets out measurements from the supplement of paper PMC7877785.

The nature of this data set: self-splicing fitness, log relative to wild type (ln ratio); higher = more splicing; Tetrahymena group I intron in knt gene, E. coli kanamycin selection, DiMSum; sequences stand for … in CUCUCU…GGAGGGAAAAGUUAUCAGGCAUGCACCUGGUAGCUAGUCUUUAAACCAAUAGAUUGCAUCGGUUUAAAAGGCAAGACCGUCAAAUUGCGGGAAAGGGGUCAACAGCCGUUCAGUACCAAGUCUCAGGGGAAACUUUGAGAUGGCCUUGCAAAGGGUAUGGUAAUAAGCUGACGGACAUGGUCCUAACCACGCAGCCAAGUCCUAAGUCAACAGAUCUUCUGUUGAUAUGGAUGCAGUUCACAGACUAAAUGUCGGUCGGGGAAGAUGUAUUCUUCUCAUAAGAUAUAGUCGGACCUCUCCUUAAUGGGAGCUAGCGGAUGAAGUGAUGCAACACUGGAGCCGCUGGGAACUAAUUUGUAUGCGAAAGUAUAUUGAUUAGUUUUGGAGUACUCGUGGUCG
The gist of the method: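 A randomised library covering all eight P1ex-region intron nucleotides was built with the intron in the knt kanamycin-resistance gene on pET-22b(+) and held in E. coli BL21(DE3). Cells were grown overnight at 37°C or 30°C on LB agar, with or without 25 μg/mL kanamycin, plus 100 μg/mL carbenicillin, 50 μM IPTG and 0.2% rhamnose, and pooled colonies were amplicon-sequenced on an Illumina HiSeq 2500. DiMSum fitness is the error-weighted combination of wild-type-normalised replicate fold changes, kanamycin versus none.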

± gives the uncertainty stated by the source.

For AACAAGCAAUAUUACGGGAG, the “self-splicing fitness (ln)” value (30 °C) was -2.51 ± 0.093 and the “self-splicing fitness (ln)” value (37 °C) is -1.96 ± 0.1.
Consider CUGUAGCAAUAUUACGCGAG, for which the “self-splicing fitness (ln)” value by setting is: (30 °C) -3.06 ± 0.29; (37 °C) -2.13 ± 0.25.
The corresponding values for CAUCAGCAAUAUUACGAUAU are -1.76 ± 0.073 and -0.599 ± 0.085.
CGCUAGCAAUAUUACGUUUC: the “self-splicing fitness (ln)” value (30 °C) is -2.78 ± 0.17 and the “self-splicing fitness (ln)” value (37 °C) is -2.23 ± 0.22.
Taken in the same sequence, the figures for CAUGAGCAAUAUUACGUGGU were -3.53 ± 0.18 and -2.49 ± 0.16.
Taken in the same sequence, the figures for GCAGAGCAAUAUUACGGUUA were -2.95 ± 0.17 and -2.17 ± 0.16.
Regarding CCGGAGCAAUAUUACGGCUG, the “self-splicing fitness (ln)” value by setting is: (30 °C) -1.14 ± 0.15; (37 °C) -0.43 ± 0.18.
With GGCUAGCAAUAUUACGACUU, the “self-splicing fitness (ln)” value by setting is: (30 °C) -0.0915 ± 0.084; (37 °C) -0.0421 ± 0.11.
With UUGCAGCAAUAUUACGACAU, the “self-splicing fitness (ln)” value (30 °C) is -0.522 ± 0.012 and the “self-splicing fitness (ln)” value (37 °C) is 0.00633 ± 0.032.
Taken in the same sequence, the figures for UGACAGCAAUAUUACGUCCU were -0.124 ± 0.076 and 0.379 ± 0.099.
With CCCUAGCAAUAUUACGCCCU, the “self-splicing fitness (ln)” value by setting is: (30 °C) -3.61 ± 0.35; (37 °C) -1.54 ± 0.23.
Taken in the same sequence, the figures for AGCUAGCAAUAUUACGGGAU were -2.04 ± 0.11 and -1.49 ± 0.13.
The corresponding values for GCGUAGCAAUAUUACGAGGG are -3.37 ± 0.16 and -1.96 ± 0.17.
The corresponding values for AACAAGCAAUAUUACGGAGG are -3.19 ± 0.19 and -0.738 ± 0.15.
As for CUCUAGCAAUAUUACGGCAU, the “self-splicing fitness (ln)” value runs as follows: (30 °C) -4.62 ± 0.39; (37 °C) -3.62 ± 0.42.
Taken in the same sequence, the figures for CCCGAGCAAUAUUACGCGAU were -1.12 ± 0.19 and -2.5 ± 0.34.
As for UGAGAGCAAUAUUACGGAUA, the “self-splicing fitness (ln)” value (37 °C) was -2.5 ± 0.26.
For ACGCAGCAAUAUUACGGUGA, the “self-splicing fitness (ln)” value is -1.39 ± 0.05 (30 °C) and 0.18 ± 0.063 (37 °C).
With CUAGAGCAAUAUUACGAUGG, the “self-splicing fitness (ln)” value runs as follows: (30 °C) -0.193 ± 0.11; (37 °C) 0.418 ± 0.14.
In the case of CACCAGCAAUAUUACGGCUG, the “self-splicing fitness (ln)” value is -3.78 ± 0.13 (30 °C) and -1.29 ± 0.083 (37 °C).
Taken in the same sequence, the figures for GUGCAGCAAUAUUACGCAUA were -1.7 ± 0.18 and -0.534 ± 0.14.
Taken in the same sequence, the figures for AGGGAGCAAUAUUACGAUUG were -3.9 ± 0.17 and -3.41 ± 0.25.
With CUUCAGCAAUAUUACGAUGA, the “self-splicing fitness (ln)” value by setting is: (30 °C) -4.12 ± 0.42; (37 °C) -1.71 ± 0.25.
Turning to AGAGAGCAAUAUUACGGUGA, under “30 °C”, the “self-splicing fitness (ln)” value was -3.54 ± 0.38.
As to UUUAAGCAAUAUUACGAAUC, the “self-splicing fitness (ln)” value was -2.96 ± 0.28 (30 °C) and -1.04 ± 0.25 (37 °C).
Consider GCAGAGCAAUAUUACGAAGG, for which the “self-splicing fitness (ln)” value is -4.31 ± 0.46 (30 °C) and -1.42 ± 0.26 (37 °C).
With ACUAAGCAAUAUUACGUGUA, the “self-splicing fitness (ln)” value (30 °C) was -2.6 ± 0.13 and the “self-splicing fitness (ln)” value (37 °C) was -1.38 ± 0.12.
For CGAAAGCAAUAUUACGGCGU, the “self-splicing fitness (ln)” value was -0.379 ± 0.074 (30 °C) and 0.313 ± 0.11 (37 °C).
Take UUUGAGCAAUAUUACGAGCU: the “self-splicing fitness (ln)” value (30 °C) is -2.69 ± 0.39.
As to CCAAAGCAAUAUUACGGGGU, the “self-splicing fitness (ln)” value runs as follows: (30 °C) -3.24 ± 0.15; (37 °C) -3.43 ± 0.23.
Taken in the same sequence, the figures for CGUAAGCAAUAUUACGUCUU were -3.7 ± 0.22 and -1.37 ± 0.14.
The corresponding values for GGUUAGCAAUAUUACGGGUC are -2.03 ± 0.24 and -0.805 ± 0.18.
For the sequence GAGCAGCAAUAUUACGGCAC, the “self-splicing fitness (ln)” value reads like this: (30 °C) -0.575 ± 0.1; (37 °C) -0.126 ± 0.17.
In the case of UCCAAGCAAUAUUACGACCA, the “self-splicing fitness (ln)” value is, setting by setting: (30 °C) -1.63 ± 0.16; (37 °C) -0.935 ± 0.17.
The corresponding values for CCAAAGCAAUAUUACGACGU are -3.76 ± 0.22 and -2.8 ± 0.21.
The corresponding values for CAGGAGCAAUAUUACGAGGA are -3.55 ± 0.25 and -3.69 ± 0.29.
Consider ACCAAGCAAUAUUACGACGC, for which the “self-splicing fitness (ln)” value reads like this: (30 °C) -0.493 ± 0.074; (37 °C) 0.0307 ± 0.098.
As to GGCGAGCAAUAUUACGGUGU, the “self-splicing fitness (ln)” value is, setting by setting: (30 °C) -2.02 ± 0.25; (37 °C) -1.55 ± 0.17.
